Data: patent US20230085439A1

Key:
[1] = molecular target: hMPV 130-BV (human metapneumovirus); experiment: biolayer interferometry, hMPV 130-BV on anti-penta-HIS biosensors; unit inferred
[2] = molecular target: hMPV 130-BV (human metapneumovirus); experiment: BLI, Fab in solution, hMPV 130-BV on anti-penta-HIS sensors
[3] = molecular target: hMPV B2 F (human metapneumovirus)
[4] = molecular target: hMPV B2 F (human metapneumovirus); experiment: BLI, Fab in solution, His-tagged hMPV B2 F on anti-penta-HIS sensors

B1: MPV458 Fab (Fab, V domains shown)
VH: QGKLVESGGGVIQPGRSLRLSCAASGFDFSRYGLHWVRQAPGKGLEWVAVIVYAGSNKYYADSVKGRFTISKDNSKNTMHLQMSDLRTEDTAVYYCARDQAFDLWGQGTMVTVSS
VL: DIQMTQSPASLSASVGDRVTITCQASQGISRSVNWYQQKPGKAPKLLIFDASHLERGVPSRFSGSGYGTDFTFTISSLQPEDIATYYCQQYDNLRISFGQGTRLEIK
B1 showed a Kd [1] of 0.075 nM and a KD difference in logs against 101F Fab [2] of 3 logs.

B2: MPV196 Fab (Fab, V domains shown)
VH: QVQLQQWGAGLLKPSETLSLTCAVYGGSFSGYSWTWIRQPPGKGLEWIGEINHSGSTNYNPSLKSRVTISIDTSRNQFSLKLISVTAADTAVYYCARGVRGGYNLWHFDVWGQGTLVTVSS
VL: SYELSQSPSVSVSPGQTARITCSGDKLGNKYASWYQQKPGQSPVLVIYQDDKRPSGIPERFSGSNSGNTATLTIGGTQAMDEADYSCQAWDGRTAVVFGGGTKLTVL
With B2 the Kd [3] was 7.3 nM, the koff [3] was 0.003 s⁻¹ and the kon [3] was 410000 M⁻¹ s⁻¹.

B3: MPV364 Fab (Fab, V domains shown)
VH: QVQLVQSGAEVKKPGASVKVSCKASGYTFTHDSIHWVRQAPGQRLEWMGWINVGNGDTKSSQKFQDRLTITRDTSANTAYMEVRSLKYEDTAMYFCARVDQYCIGGVCYGGKNWFDPWGQGTLVTVSS
VL: SYELNQPPSVSVAPGQTAMITCGGYYVGVKSLHWYQQKAGQAPVLVVHDDSDRPSGIPERFSGSKSGDTATLIISRVEAGDEADYYCQVWDRDSDHPYVFGTGTTVTVL
With B3 the Kd [3] was 70 nM, the koff [3] was 0.0038 s⁻¹ and the kon [3] was 61000 M⁻¹ s⁻¹. The fold KD against MPV196 and MPV314 [4] was 10 fold.

B4: MPV314 Fab (Fab, V domains shown)
VH: QVQLVQSGGGVVQPGRSLRLSCAASGFSFSDYGMDWVRQAPGKGLEWVAVISYDGSNQYYADSVKGRFTVSRDNSKNTVYLQMNSLRAEDTAVYFCAKDESRRYYYSSGIHSHWGQGTLVTVSS
VL: DIVMTQSPATLSVSPGERATLSCRASQSVSRNLAWYQQKPGQAPRLLIFGASTRATGIPARFSGSASGTEFTLTISSLQSEDFAVYYCHQYNYWPPGTFGQGTRLEIK
B4 showed a Kd [3] of 4.4 nM, a koff [3] of 0.0027 s⁻¹ and a kon [3] of 630000 M⁻¹ s⁻¹.
